In patent WO2019173771A1 one finds Kd data, which are given here for one molecule.

In this assay the target is human CD147 on human cell lines (KYSE-70, H292, LS174T and other human-derived cell lines) (human) (UniProt P35613). The experiment in a line: FACS on the human KYSE-70 esophageal epithelial cell line, Alexa Fluor 647 anti-human IgG.

B1: humanized anti-human CD147 hu3A11 antibody (3A11 Lc1 / Hc1) (antibody, V domains shown)
VH: EVQLVESGGGLVQPGGSLRLSCAASGFTFSNYWMDWVRQAPGKGLEWVGEIRLKSYNYATHYAASVKGRFTISRDDSKNSVYLQMNSLKTEDTAVYYCTAAGTDYWGQGTLVTVSS
VL: DIQMTQSPSSLSASVGDRVTITCRASQSVRTDVGWYQQKPGKAPKLLIYYSSNRYTGVPSRFSGSGSGTDFTLTISSLQPEDFATYYCQQDYSSPYTFGQGTKLEIK
What is called Kd is the free concentration of one partner at which half of the binding sites on the other are occupied at equilibrium, for simple one-to-one binding. A low value points to a tighter complex. B1 displayed a Kd of 1.65 nM.
